Test results as given in patent US20260029420A1, “ANTI-CB2 ANTIBODIES AND THEIR USE IN A FLOW CYTOMETRY ASSAY TO MEASURE CELL SURFACE CB2 EXPRESSION” (Hoffmann-La Roche Inc., priority 2022, published 2026).

What was measured:
Type in all cases: binding
pANITA3.1 mCB2 (JB176) = target: T1, pANITA3.1 mCB2 (JB176) (Mus musculus, UniProt P47936); assay: Immunoprecipitation from whole cell lysates; parameters: key to Immunoprecipitation signal intensity: “−” no signal; “+”-“+++++” signal intensity; “+”-“+++++” signal intensity; “+”-“+++++” signal intensity; “+”-“+++++” signal intensity; “+”-“+++++” signal intensity
T1 construct: expressed in transfected cells; host or cells: HEK293
Description: The positive clones (Table 1) were further characterized by immunofluorescence (IF; Table 2), Western Blot (Table 3, 1) and Immune precipitation (Table 4, 2) on full length hCB2, hCB1, mCB2 stable-transfected CHO-cell lines in addition to the 2 pANITA constructs.
For immunoprecipitation (IP), whole cell lysates were incubated with the respective antibodies. IP was performed according to established protocols and subsequent western blot as described herein above.

CHO-DUKX parental cells = assay: Flow cytometry on CHO-DUKX cells
Description: (§1) FIG. 4: Flow cytometric analysis of hCB2 antibody 1/622 in CHO-DUKX parental and CHO-DUKX_HOMSA_CNR2_Clone_90_CRE-Luc cells transfected with hCB2. For detection an F(ab)2 goat-anti Mouse IgG3 PE antibody was used. The anti-human CB2 antibody 1/622 detects the CB2 in the CHO cells transfected with hCB2 with a signal to background ratio of 10, the CHO-DUKX parental cells are negative.

[1] = target: T2, CHO-DUKX_HOMSA_CNR2_Clone_90_CRE-Luc cells transfected with hCB2 (Homo sapiens, UniProt P34972); assay: Flow cytometry on CHO-DUKX cells; details: transfected vs parental untransfected CHO cells
T2 construct: expressed in transfected cells
Description: as §1

[2] = test system: untransfected CHO K1 controls; assay: Flow cytometry with increasing antibody levels on CHO K1 cells; details: 0.1, 1 or 10 μg/ml antibody
Description: (§2) FIG. 3: Analysis of the specificity of the anti hCB2 antibody 1/622 for hCB2. Flow cytometric analysis with increasing concentrations of hCB2 antibody 1/622 in CHO cells transfected with hCB2 (light brick) and hCB1 (dark brick). Untransfected CHO cells (black) serve as a negative control. For detection an F(ab)2 goat-anti Mouse IgG3 PE antibody was used.
(§3) Further evidence for the specificity of the anti-human CB2 antibody 1/622 was generated by flow cytometry experiments using increasing levels of the antibody on untransfected, hCB1 or hCB2 transfected CHO K1.
(§4) The cells were washed 1× with 1× DPBS without CaCl2 and MgCl2 (Gibco, #14190-094). Accutase (Sigma, #A6964) was added and the cell were placed back in the incubator. Once the cells had detached, they were collected in a Falcon tube containing DMEM high glucose+GlutaMAX (Gibco, #31966-021) and 10% heat inactivated FBS (Gibco, #16140-071). Cells were centrifuged for 5 minutes at 250×g and 4° C. and the cell pellet was resuspended in cell staining buffer (BioLegend, #420201) and put them on ice until further usage. The cells were incubated with 0.1, 1 or 10 μg/ml hCB2-1/622 antibody and incubated for 30 minutes at 4° C. After the incubation, the tubes were centrifuged for 5 minutes with 250×g and 4° C. The supernatant was removed completely, cells were washed two times with cold cell staining buffer and supernatant removed completely after the centrifugation. Human FcR Blocking Reagent (Miltenyi Biotech, Cat #130-059-901) was diluted according to the package insert instructions with cold cell staining buffer. To each sample 50 μl was added, mixed and incubated for 10 minutes at 4° C. The secondary antibody Goat F(ab′)2 Anti-Mouse IgG3 PE (Southern Biotech, Cat #1102-09) was diluted 1:25 in cold cell staining buffer. To each sample 50 μl was added, mixed and incubated for 30 minutes at 4° C. in the dark. After the incubation cells were washed 2× with cold cell staining buffer and supernatant removed completely after centrifugation. […]

CHO K1 hCB1R = target: T3, CHO K1 hCB1R (Homo sapiens, UniProt P21554); assay: as above; details: 0.1, 1 or 10 μg/ml antibody
T3 construct: expressed in transfected cells; host or cells: CHO K1
Description: as §2, §3, §4

CHO K1 h CB2 cell line = target: T4, CHO K1 h CB2 cell line (Homo sapiens, UniProt P34972); assay: as above; details: 0.1, 1 or 10 μg/ml antibody; CHO K1 hCB2
T4 construct: expressed in transfected cells; host or cells: CHO K1
Description: as §2, §3, §4

T1 sequence (P47936 with tags, fused parts or gaps): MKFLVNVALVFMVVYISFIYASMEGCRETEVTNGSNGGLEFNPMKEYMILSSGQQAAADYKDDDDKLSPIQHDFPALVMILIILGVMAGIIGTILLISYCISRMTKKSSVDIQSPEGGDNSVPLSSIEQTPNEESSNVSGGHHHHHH
T4 sequence (P34972 whole entry): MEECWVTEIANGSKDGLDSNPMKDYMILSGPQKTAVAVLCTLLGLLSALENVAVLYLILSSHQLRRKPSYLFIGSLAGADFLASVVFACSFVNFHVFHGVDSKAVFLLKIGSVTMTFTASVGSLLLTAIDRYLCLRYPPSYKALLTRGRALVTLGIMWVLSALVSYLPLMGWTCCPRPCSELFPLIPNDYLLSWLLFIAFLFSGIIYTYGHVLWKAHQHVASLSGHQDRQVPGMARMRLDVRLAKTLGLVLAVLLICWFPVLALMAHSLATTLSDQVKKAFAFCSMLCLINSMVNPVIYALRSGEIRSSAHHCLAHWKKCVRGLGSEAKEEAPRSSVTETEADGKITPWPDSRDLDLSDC
T2 sequence (P34972 whole entry): as above
T3 sequence (P21554 whole entry): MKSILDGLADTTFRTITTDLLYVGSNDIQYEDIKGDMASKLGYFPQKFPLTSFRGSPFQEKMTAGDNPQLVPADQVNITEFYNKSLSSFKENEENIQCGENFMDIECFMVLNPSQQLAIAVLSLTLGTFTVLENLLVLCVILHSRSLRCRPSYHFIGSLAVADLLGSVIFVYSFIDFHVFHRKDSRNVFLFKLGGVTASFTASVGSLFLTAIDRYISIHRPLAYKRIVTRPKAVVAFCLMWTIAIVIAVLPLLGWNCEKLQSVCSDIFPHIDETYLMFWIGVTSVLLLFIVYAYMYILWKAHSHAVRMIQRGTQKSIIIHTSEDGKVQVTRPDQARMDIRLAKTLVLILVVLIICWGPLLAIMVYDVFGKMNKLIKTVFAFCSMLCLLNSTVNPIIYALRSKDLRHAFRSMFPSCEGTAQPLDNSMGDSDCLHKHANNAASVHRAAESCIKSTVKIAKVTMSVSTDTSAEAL

B1: hCB2-1/622: murine IgG3 monoclonal anti-human CB2 antibody, VH SEQ ID NO: 1, VL SEQ ID NO: 2, HC SEQ ID NO: 3, LC SEQ ID NO: 4 (antibody)
heavy: EVQLQQSGPELVKPGASVKISCKTSGYTFTEYTMHWVRQSHGKSLEWIGGIDRYNGDTYYNQKFKDKATLTVDRSSSTAYMELRSLTSEDSAVYFCARNGAMDYWGQGISVTVSSATTTAPSVYPLVPGCSDTSGSSVTLGCLVKGYFPEPVTVKWNYGALSSGVRTVSSVLQSGFYSLSSLVTVPSSTWPSQTVICNVAHPASKTELIKRIEPRIPKPSTPPGSSCPPGNILGGPSVFIFPPKPKDALMISLTPKVTCVVVDVSEDDPDVHVSWFVDNKEVHTAWTQPREAQYNSTFRVVSALPIQHQDWMRGKEFKCKVNNKALPAPIERTISKPKGRAQTPQVYTIPPPREQMSKKKVSLTCLVTNFFSEAISVEWERNGELEQDYKNTPPILDSDGTYFLYSKLTVDTDSWLQGEIFTCSVVHEALHNHHTQKNLSRSPGK
light: DVVMTQTPLSLPVSLGDQASISCRSSQSLVHSNGNTYLHWFLQKPGQSPKLLIYKVSIRFSGVPDRFSGSGSGTDFTLKISRVEAEDLGVYFCSQSTHVPPLTFGAGTKLELKRADAAPTVSIFPPSSEQLTSGGASVVCFLNNFYPKDINVKWKIDGSERQNGVLNSWTDQDSKDSTYSMSSTLTLTKDEYERHNSYTCEATHKTSTSPIVKSFNRNEC
**Q.** With B1 as the molecule, how does the “immunoprecipitation cross reactivity” value (pANITA3.1 mCB2 (JB176); mCB2) read?
**A.** Its value is “no cross reactivity”.

**Q.** What about the Immunoprecipitation signal intensity (pANITA3.1 mCB2 (JB176); pANITA3.1 mCB2 (JB176) lysate) of the same molecule?
**A.** The Immunoprecipitation signal intensity was “−”.

**Q.** What about the “flow cytometric detection of CB2” value (CHO-DUKX parental cells) of the same molecule?
**A.** Its value is “negative”.

**Q.** And the “signal to noise ratio for detection of human CB2” value [1]?
**A.** Its value is “good signal to noise ratio”.

**Q.** What about the “median fluorescence intensity (MFI) signal” value (from here on “median fluorescence intensity”) [2] of the same molecule?
**A.** Its value is “remained at background levels”.

**Q.** What about the “median fluorescence intensity” value (CHO K1 hCB1R) of the same molecule?
**A.** Its value is “remained at background levels”.

**Q.** And the “median fluorescence intensity” value (CHO K1 h CB2 cell line)?
**A.** The value was “dose related increase”.
